Results as given in article PMC12124358 (Science Advances, 2025).

Biological target: Clr4 lysine methyltransferase (KMT) domain (residues 192 to 490) (S. pombe, UniProt O60016 192-490)
Test: ITC

Chain of Clr4 lysine methyltransferase (KMT) domain (residues 192 to 490) (O60016 192-490): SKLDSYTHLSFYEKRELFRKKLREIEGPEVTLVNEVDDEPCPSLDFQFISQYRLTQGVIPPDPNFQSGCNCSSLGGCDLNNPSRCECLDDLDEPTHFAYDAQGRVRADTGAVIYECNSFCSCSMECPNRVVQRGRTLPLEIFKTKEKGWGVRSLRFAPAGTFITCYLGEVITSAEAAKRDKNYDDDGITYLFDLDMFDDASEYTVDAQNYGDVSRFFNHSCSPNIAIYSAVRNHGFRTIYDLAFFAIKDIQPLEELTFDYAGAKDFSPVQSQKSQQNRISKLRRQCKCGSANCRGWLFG

Kd: 133 ± 13 µM
B1: H3(1–20)_([change])-Ub_([change]), disulfide bond-linked ubiquitinated H3 tail (other)
chain 1: ARTKQTARKSTGGCAPRKQL
chain 2: […]
